{"source": "paper doi:10.1101/2023.06.28.546964", "molecular_target": "T1, PfAgo binding-pocket mutant (UniProt Q8U3D2)", "T1 sequence": "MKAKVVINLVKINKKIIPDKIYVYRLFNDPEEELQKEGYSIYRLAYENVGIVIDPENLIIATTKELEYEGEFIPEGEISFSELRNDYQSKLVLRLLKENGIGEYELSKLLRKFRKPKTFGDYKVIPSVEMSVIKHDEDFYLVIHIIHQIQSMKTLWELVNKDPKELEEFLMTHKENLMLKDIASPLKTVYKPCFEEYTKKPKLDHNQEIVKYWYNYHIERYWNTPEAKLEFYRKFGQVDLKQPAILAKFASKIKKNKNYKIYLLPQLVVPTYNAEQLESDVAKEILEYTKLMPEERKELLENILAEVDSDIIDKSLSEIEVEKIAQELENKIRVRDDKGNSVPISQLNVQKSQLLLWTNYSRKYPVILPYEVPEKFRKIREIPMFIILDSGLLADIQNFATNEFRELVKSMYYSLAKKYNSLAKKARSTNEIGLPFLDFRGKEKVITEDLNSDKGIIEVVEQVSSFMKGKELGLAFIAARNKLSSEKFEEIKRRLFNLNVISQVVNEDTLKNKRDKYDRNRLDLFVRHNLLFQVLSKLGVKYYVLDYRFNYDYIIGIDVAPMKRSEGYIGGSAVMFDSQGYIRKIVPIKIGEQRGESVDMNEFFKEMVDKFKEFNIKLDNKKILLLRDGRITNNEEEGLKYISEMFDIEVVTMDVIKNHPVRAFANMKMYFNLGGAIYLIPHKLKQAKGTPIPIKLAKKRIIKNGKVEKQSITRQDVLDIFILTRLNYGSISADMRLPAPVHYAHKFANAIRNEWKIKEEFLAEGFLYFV", "experiment": "fluorescence polarization", "data": [{"sequence": "ATATACTATACAACCTACTACCTCGTATAAATTTTTAAATAAATA [45nt DNA target]", "values": [{"measurement": "binding signal (fold affinity gain)", "value": 3}]}, {"sequence": "TGACGTAGTAGGTTGT [guide_m4]", "values": [{"measurement": "binding signal (fold affinity gain (up to))", "setting": "5' phosphate", "value": 2}]}]}
